Results: publication PMC5171940, “Structure of Crenezumab Complex with Aβ Shows Loss of β-Hairpin” (Scientific Reports, 2016)
Where no end group is shown, it is not given here.

Target: T1, Aβ monomers on the SPR chip: biotinylated Aβ 11–28 (Homo sapiens (from His13), UniProt P05067, also: biotin, position not given here)
T1 construct: amyloid-β peptide, residues 11-28; the methods name only 11–28; also called monomer Aβ chips
T1 chain: EVHHQKLVFFAEDVGSNK
Assay: SPR; BIAcore T200, single-cycle kinetics; biotinylated Aβ (11–28 or oligomeric 1–42) captured on streptavidin-coupled CM5 chip (100–200 RU); antibody as analyte 0.8–500 nM in HBS-P pH 7.4, 0.15 M NaCl; one-to-one Langmuir model
Settings: both partners purified

- Kd: 3 to 5 nM
B1: Crenezumab, fully humanized anti-Aβ monoclonal IgG4 (antibody, V domains shown)
VH: EVQLVESGGGLVQPGGSLRLSCAASGFTFSSYGMSWVRQAPGKGLELVASINSNGGSTYYPDSVKGRFTISRDNAKNSLYLQMNSLRAEDTAVYYCASGDYWGQGTTVTVSS
VL: DIVMTQSPLSLPVTPGEPASISCRSSQSLVYSNGDTYLHWYLQKPGQSPQLLIYKVSNRFSGVPDRFSGSGSGTDFTLKISRVEAEDVGVYYCSQSTHVPWTFGQGTKVEIK
notes: crenezumab VH: as the VH of the heavy chain of m1 (PDB 5KNA / 5KMV) but without the T108L change; IgG4 heavy chain constant region; as the light chain of m1 (unaltered crenezumab light chain); IgG4; also called full-length IgG4; copies: 2 + 2
